Test results published in patent publication US9925134B2, “Use of substances to protect FGF-2 or FGF-beta growth factor” (BASF Beauty Care Solutions France SAS, priority 2007, dated 2018).

Tests used:
[1] = 37° C.; neutral pH; cited from earlier work
FGF-2 = FGF-2 (Homo sapiens, UniProt P09038); assay: Study of thermal degradation (stability) of FGF-2 at various temperatures with or without heparin, ELISA; type: physicochemical; settings: without heparin
Method: A 5 ng/ml solution of FGF-2 in a 10 mM PBS buffer with 0.1% BSA and 0.1% of methylparaben is prepared.
This solution is placed at various temperatures: 4° C., 20° C., 37° C., 50° C., and 80° C. either in the presence of heparin or not at 500 μg/ml.
Dosages of FGF-2 with a commercial ELISA kit (R&D system, France) are performed at different times (T=0, 3 hrs, 24 hrs and 48 hrs) so as to establish degradation kinetics for each temperature of investigation.
The results are expressed as a percentage of FGF-2 relative to time T=0. The experiments are conducted in triplicates (n=3). The obtained results are illustrated in FIGS. 1 and 2.

cathepsin G = target: T1, cathepsin G (Homo sapiens, UniProt P08311); assay: Degradation kinetics of FGF-2 by cathepsin G; type: biochemical; settings: for FGF-2 concentration in the presence of cathepsin G / FGF-2 concentration Temperature control: 37° C.; for FGF-2 concentration in the presence of cathepsin G: cathepsin G 0.02 U per well; for FGF-2 concentration Temperature control: enzyme-free; for Degradation % in the presence of cathepsin G: relative to temperature control
T1 sequence (P08311 21-244): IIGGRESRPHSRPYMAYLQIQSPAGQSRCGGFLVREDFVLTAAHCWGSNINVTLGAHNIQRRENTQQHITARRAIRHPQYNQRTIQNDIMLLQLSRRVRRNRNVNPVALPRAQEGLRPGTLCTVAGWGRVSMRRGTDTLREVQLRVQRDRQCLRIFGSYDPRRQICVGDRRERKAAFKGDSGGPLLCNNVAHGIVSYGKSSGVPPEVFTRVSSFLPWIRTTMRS
Method: For this reason, a study of the degradation of FGF-2 by cathepsin G was conducted. Degradation kinetics was carried out in a 100 mM Hepes buffer, pH7 containing 0.1% BSA. Cathepsin G was added into the wells of the plate at a concentration of 0.02 U per well to a 2 ng/well FGF-2 solution. The plate was incubated at 37° C. and sampling was performed at 15, 30, 60, 90 and 120 minutes in order to dose the remaining FGF-2.
The control (100%) is made by extemporaneous dosage of FGF-2. At the same time, an enzyme-free control solution is placed at 37° C. in order to study thermal degradation at the different times, so as to get rid of this degradation due to temperature and to quantify the portion only due to enzymatic degradation.

[2] = tested on: normal human dermal fibroblasts; assay: Fibroblast proliferation by FGF-2 protected by heparin or extract 5c (PNPP); type: cell-based; settings: for Proliferation (expressed as percent relative to the non-treated well): 48 hrs, heparin 0.01% during 24 hrs at 37° C.
Method: A solution of FGF-2 is prepared extemporaneously (=non-degraded FGF-2); a solution of FGF-2 is placed for 24 hrse at 37° C. in the absence (=degraded FGF-2) and in the presence of heparin (=FGF-2+heparin at 37° C.) at 0.01%.
Each FGF-2 solution is diluted so as to be applied on the cells, the final FGF-2 concentrations being the following: 0.1, 0.25, 0.5, 0.75 and 1 ng/ml.
Normal human dermal fibroblasts were sown at low density in 6-well plates. They were then grown in a medium in the absence (control) or in the presence of FGF-2 at various concentrations.
After 48 hrs, the activity of intracellular acid phosphatases (PNPP) is dosed, so as to be able to evaluate the effect of FGF-2 solutions, either treated or not, on cell proliferation.
The results are expressed as a proliferation percentage relative to the control well i.e. to the non-treated well.
The same experiment was conducted by replacing heparin with extract 5c. The FGF-2 solution put into the presence of 0.5% of extract 5c is placed for 24 hrs at 37° C. The solution is then diluted so as to apply 0.5 ng/ml of FGF-2 in the wells containing the fibroblasts.
The 5c extract concentration finally applied on the cells is 0.0025%. It was checked beforehand that this 5c extract concentration was not capable of inducing stimulation of the proliferation of fibroblasts. This means that the observed stimulation of proliferation is actually due to the protection of FGF-2 by extract 5c (see Table 8).

FGF-2, sequence (P09038 143-288): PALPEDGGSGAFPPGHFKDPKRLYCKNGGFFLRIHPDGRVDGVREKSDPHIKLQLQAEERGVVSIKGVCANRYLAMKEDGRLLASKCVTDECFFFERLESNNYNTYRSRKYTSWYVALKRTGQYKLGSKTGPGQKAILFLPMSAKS

For “FGF-2: Fibroblast Growth Factor; non-degraded = solution of FGF-2 prepared extemporaneously”, the “half-life time of FGF-2 in vitro” value [1] is given as “about 24 hours”, the “FGF-2 degraded (percentage relative to T=0)” value (FGF-2; 4° C., 48 hrs) is given as 20% and the “FGF-2 degradation (percentage relative to T=0)” value (FGF-2; 37° C., 3 hrs) is given as 65%. For the same substance, the “FGF-2 degraded (percentage relative to T=0)” value (FGF-2; 37° C., 24 hrs) was 80%, the “FGF-2 degradation (percentage relative to T=0)” value (FGF-2; 50° C., 3 hrs) was 80% and the “FGF-2 degradation (in words)” value (FGF-2; 80° C., 3 hrs) was “total degradation”. The “FGF-2 concentration in the presence of cathepsin G” value (from here on “FGF-2 concentration in the presence”) (cathepsin G; 0 minutes) was 339.05 ± 7.43 pg/mL, the “FGF-2 concentration Temperature control” value (cathepsin G; 0 minutes) was 391.8 ± 3.64 pg/mL and the “Degradation % in the presence of cathepsin G” value (from here on “Degradation % in the presence”) (cathepsin G; 0 minutes) was 13.29%. The “FGF-2 concentration in the presence” value (cathepsin G; 15 minutes) was 295.61 ± 8.49 pg/mL, the “FGF-2 concentration Temperature control” value (cathepsin G; 15 minutes) was 324.99 ± 1.7 pg/mL and the “Degradation % in the presence” value (cathepsin G; 15 minutes) was 8.95%. For the same substance, the “FGF-2 concentration in the presence” value (cathepsin G; 30 minutes) was 248.04 ± 1.97 pg/mL, the “FGF-2 concentration Temperature control” value (cathepsin G; 30 minutes) was 291.83 ± 2.4 pg/mL and the “Degradation % in the presence” value (cathepsin G; 30 minutes) was 14.77%. For the same substance, the “FGF-2 concentration in the presence” value (cathepsin G; 60 minutes) was 203.67 ± 1.13 pg/mL, the “FGF-2 concentration Temperature control” value (cathepsin G; 60 minutes) was 280.64 ± 3.23 pg/mL and the “Degradation % in the presence” value (cathepsin G; 60 minutes) was 27.5%. For the same substance, the “FGF-2 concentration in the presence” value (cathepsin G; 90 minutes) was 141.94 ± 5.14 pg/mL, the “FGF-2 concentration Temperature control” value (cathepsin G; 90 minutes) was 259.81 ± 4.9 pg/mL and the “Degradation % in the presence” value (cathepsin G; 90 minutes) was 45.55%. For the same substance, the “FGF-2 concentration in the presence” value (cathepsin G; 120 minutes) was 131.36 ± 2.49 pg/mL, the “FGF-2 concentration Temperature control” value (cathepsin G; 120 minutes) was 241.67 ± 1.97 pg/mL and the “Degradation % in the presence” value (cathepsin G; 120 minutes) was 45.6%. The “Proliferation (as a percentage) of fibroblasts relative to the non-treated control” value ([2]; FGF-2 0.5 ng/ml, 0.5% 5c extract during 24 hrs at 37° C. (0.0025% on the cells)) was 148.5% ± 0.007, the “Proliferation (expressed as percent relative to the non-treated well)” value ([2]; FGF-2 concentration 0.1 ng/ml) was 116.7 ± 0.012% and the “Proliferation (expressed as percent relative to the non-treated well)” value ([2]; FGF-2 concentration 0.25 ng/ml) was 138.7 ± 0.005%. The “Proliferation (expressed as percent relative to the non-treated well)” value ([2]; FGF-2 concentration 0.5 ng/ml) was 148.5 ± 0.007%, the “Proliferation (expressed as percent relative to the non-treated well)” value ([2]; FGF-2 concentration 0.75 ng/ml) was 163.2 ± 0.005% and the “Proliferation (expressed as percent relative to the non-treated well)” value ([2]; FGF-2 concentration 1 ng/ml) was 160 ± 0.003%.
